# Measured values as given in article PMC7371702.
# Columns and labels:
# [1] = target: YFP-tagged α7 nicotinic acetylcholine receptor (human CHRNA7 with YFP fused into the M3-M4 loop) (human) (UniProt P36544)
# [2] = target: YFP-tagged α7 nicotinic acetylcholine receptor (human CHRNA7 with YFP fused into the M3-M4 loop) (human) (UniProt P36544); remark: listed apart in the source
# UniProt P36544, sequence (P36544 23-502): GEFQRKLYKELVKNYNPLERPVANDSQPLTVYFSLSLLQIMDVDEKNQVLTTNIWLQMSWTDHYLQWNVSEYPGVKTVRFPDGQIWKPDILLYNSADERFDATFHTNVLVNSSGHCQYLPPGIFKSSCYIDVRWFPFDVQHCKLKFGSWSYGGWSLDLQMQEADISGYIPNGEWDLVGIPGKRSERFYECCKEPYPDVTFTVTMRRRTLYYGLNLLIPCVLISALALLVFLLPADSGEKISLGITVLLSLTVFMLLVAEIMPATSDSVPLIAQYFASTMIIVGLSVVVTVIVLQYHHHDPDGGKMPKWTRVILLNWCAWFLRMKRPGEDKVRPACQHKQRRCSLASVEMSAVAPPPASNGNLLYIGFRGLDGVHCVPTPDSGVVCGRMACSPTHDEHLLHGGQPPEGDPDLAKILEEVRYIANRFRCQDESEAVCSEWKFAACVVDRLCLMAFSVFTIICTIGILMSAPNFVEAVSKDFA
Binder,inhibition of ligand-evoked α7 nAChR current in TARO cells by exogenously added soluble Ly6H-SBP (2.5 μM) [1],"inhibitory ratio: post-stimulation peak amplitude divided by pre-stimulation peak amplitude of choline (30 μM) + PNU120596 (1 μM)-evoked current in TARO cells, 2.5 μM soluble protein applied for 3 min [2]"
Soluble streptavidin-binding peptide (SBP)-tagged mouse Ly6H (natural protein) LWCQDCTLANSSHCAPKQCQPTDTVCASVRITDPSSSRKDHSVNKMCASSCDFVKRHFFSDYLMGFINSGILKVDVDCCEKDLCN,14%,82.7%
Soluble SBP-tagged mouse Ly6H R38A mutant (natural protein) LWCQDCTLANSSHCAPKQCQPTDTVCASVRITDPSSSAKDHSVNKMCASSCDFVKRHFFSDYLMGFINSGILKVDVDCCEKDLCN,,100%
